Publication PMC2121072

Target: full-length GST-hDlg fusion protein (human) (UniProt Q12959)
Assay: pull-down

Sequence of full-length GST-hDlg fusion protein (human) (Q12959 whole entry, the tested form may be a part): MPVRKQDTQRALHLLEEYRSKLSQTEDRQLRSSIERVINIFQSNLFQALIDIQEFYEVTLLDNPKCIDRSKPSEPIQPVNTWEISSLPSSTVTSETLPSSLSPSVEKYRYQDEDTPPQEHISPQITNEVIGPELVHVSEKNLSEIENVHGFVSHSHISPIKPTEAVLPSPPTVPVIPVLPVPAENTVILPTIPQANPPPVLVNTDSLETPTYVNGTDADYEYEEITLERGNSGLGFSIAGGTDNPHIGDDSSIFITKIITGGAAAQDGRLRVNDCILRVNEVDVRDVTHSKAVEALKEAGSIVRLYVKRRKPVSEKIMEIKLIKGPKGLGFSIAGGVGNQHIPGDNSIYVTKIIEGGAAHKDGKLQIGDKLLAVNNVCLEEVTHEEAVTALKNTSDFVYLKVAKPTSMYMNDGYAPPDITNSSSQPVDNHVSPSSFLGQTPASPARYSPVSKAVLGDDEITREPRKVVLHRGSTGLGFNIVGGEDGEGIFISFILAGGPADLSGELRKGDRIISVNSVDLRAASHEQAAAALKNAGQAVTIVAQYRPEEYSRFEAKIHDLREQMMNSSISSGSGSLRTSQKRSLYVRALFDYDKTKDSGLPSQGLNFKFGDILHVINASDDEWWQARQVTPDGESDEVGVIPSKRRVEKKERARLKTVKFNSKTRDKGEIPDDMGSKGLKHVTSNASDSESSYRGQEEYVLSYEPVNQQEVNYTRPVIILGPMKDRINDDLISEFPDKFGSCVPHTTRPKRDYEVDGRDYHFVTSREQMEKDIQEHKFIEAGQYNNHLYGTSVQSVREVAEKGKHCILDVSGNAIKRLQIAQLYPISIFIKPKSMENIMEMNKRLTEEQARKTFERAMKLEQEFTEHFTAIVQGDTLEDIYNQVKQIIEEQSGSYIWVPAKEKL

Kd: 5.3 nM
Substance: 125I-labeled 30-kD amino-terminal domain of protein 4.1 (domain or fragment)
